Where no end group is shown, it is not given here.
Assays:
Format in all cases: biochemical
PKA = PKA (Mus musculus, UniProt P05132); assay: GFP mutant K8 quenching assay with protein kinase A inhibitors; settings: 1 mM versus 0.1 mM ATP
Procedure: The protein kinase A inhibitors PKI (protein kinase A heat-stable inhibitor, isoform alpha (Calbiochem #539488) and H-89 (N-[2-((p-bromocinnamyl)amino)ethyl]-5-isoquinoline sulfonamide, HCl) (Calbiochem #371963) were tested in the preferred assay condition to determine if they could be detected using the GFP mutant K8 quenching assay. Both compounds were tested individually (between 0.1 and 1,000 nM) and pre-incubated with PKA in the absence of mutant K8 for 10 minutes at 4° C. Then, GFP mutant K8 was added to a final concentration of 4 μM and the mixtures were incubated for thirty minutes at 30° C. The kinase reactions were terminated by the addition of the preferred acetate quenching conditions (100 mM acetate, 100 mM NaCl, pH 5.0, 25 mM beta-glycerol phosphate). The fluorescence of these samples was measured 14 to 16 hours later. The results of these studies establish that the GFP mutant K8 quenching assay can be used to detect kinase inhibitors and further validates the methodology for drug screening.
The protein kinase A inhibitor H-89 was tested in the GFP mutant K8 kinase assay at two different ATP concentrations (0.1 mM and 1 mM). […] Because the GFP kinase assay can be performed at both high and low ATP concentrations, this method can be used to identify, measure, and detect ATP antagonists. […]

PKC ζ = biological target: T1, PKC ζ (Homo sapiens, UniProt Q05513); assay: Rate of phosphorylation of GFP PKC substrates, ^32P incorporation; settings: 5 micromolar GFP mutant, 0.2 μg PKC isoform, 30 minutes at 30° C.
T1 sequence (Q05513 1-592): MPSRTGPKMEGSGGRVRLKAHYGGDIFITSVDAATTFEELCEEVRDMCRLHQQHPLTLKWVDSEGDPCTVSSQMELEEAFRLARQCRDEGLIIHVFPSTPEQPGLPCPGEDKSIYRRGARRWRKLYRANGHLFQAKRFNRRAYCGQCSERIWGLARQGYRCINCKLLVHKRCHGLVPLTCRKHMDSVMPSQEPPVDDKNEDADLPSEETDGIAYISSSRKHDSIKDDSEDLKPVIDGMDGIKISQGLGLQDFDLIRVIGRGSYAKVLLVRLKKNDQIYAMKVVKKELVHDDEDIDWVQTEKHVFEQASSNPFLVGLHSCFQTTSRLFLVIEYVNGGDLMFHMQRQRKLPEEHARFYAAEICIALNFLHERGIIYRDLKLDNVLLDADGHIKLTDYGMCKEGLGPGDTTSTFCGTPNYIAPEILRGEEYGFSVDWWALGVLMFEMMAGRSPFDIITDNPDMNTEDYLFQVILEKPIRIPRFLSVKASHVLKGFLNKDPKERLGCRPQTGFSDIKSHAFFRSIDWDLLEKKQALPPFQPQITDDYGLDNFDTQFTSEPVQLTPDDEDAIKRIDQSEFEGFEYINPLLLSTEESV
Procedure: (§1) The rates of phosphorylation of GFP having PKC motifs were determined by measuring ^32P incorporation in the presence of different PKC isoforms (Table XIII). These examples include one example where a membrane association motif is part of the GFP mutant.
(§2) These experiments were performed by incubating the indicated GFP mutant (5 micromolar) with the indicated PKC isoform (0.2 μg) for 30 minutes at 30° C. in 25 mM TRIS pH 7.5, 1 mM DTT, 10 mM MgCl2 0.1 mM ATP 20 μg/ml phosphatidylserine, 10 μM OAG, 200 μM CaCl2 (for PKCα) and 1 mM EGTA (for PKCs ε and ζ). […] The relative specificities identified for the GFP substrates in this experiment broadly matched those identified by Nishikawa et al (1997) who used non-GFP peptides to selectively measure PCK isoform activity. […] Membrane association motif poly-Lys (hepta-Lys) was added to the C-terminus of GFP mutant K8 with PKC alpha phosphorylation motif at the N-terminus.

PKC ε = biological target: T2, PKC ε (Homo sapiens, UniProt Q02156); assay: as above; settings: 5 micromolar GFP mutant, 0.2 μg PKC isoform, 30 minutes at 30° C.
T2 sequence (Q02156 1-737): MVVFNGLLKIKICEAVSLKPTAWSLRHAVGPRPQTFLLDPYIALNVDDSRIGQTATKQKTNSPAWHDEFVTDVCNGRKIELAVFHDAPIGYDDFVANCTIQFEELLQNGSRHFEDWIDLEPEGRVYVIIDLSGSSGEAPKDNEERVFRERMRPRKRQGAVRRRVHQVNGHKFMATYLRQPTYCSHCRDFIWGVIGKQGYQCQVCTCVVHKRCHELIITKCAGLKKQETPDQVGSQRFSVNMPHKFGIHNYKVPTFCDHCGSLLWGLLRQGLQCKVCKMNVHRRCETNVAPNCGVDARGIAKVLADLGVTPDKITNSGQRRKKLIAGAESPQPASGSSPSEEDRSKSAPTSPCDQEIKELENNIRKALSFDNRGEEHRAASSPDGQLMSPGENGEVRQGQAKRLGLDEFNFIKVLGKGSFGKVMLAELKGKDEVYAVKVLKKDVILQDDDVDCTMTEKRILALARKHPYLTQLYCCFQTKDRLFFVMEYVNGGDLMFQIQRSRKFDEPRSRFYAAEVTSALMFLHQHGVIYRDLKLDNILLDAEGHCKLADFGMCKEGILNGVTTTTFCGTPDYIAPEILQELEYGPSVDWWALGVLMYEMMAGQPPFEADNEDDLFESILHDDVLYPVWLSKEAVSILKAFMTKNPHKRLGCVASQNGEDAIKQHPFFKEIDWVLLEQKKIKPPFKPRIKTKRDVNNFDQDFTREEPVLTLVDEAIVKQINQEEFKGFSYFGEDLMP
Procedure: as §1, §2

PKC alpha = PKC alpha (Homo sapiens, UniProt P17252); assay: as above; settings: 5 micromolar GFP mutant, 0.2 μg PKC isoform, 30 minutes at 30° C.
Procedure: as §1, §2

Row | Kinase and Activity (CPM), PKC ζ (PKC ζ) | Kinase and Activity (CPM), PKC ε (PKC ε) | Kinase and Activity (CPM), PKC alpha (PKC alpha) | Compound | inhibition of kinase activity at the higher ATP concentration (PKA)
1 | – | – | – | Cl.O=S(=O)(NCCNCC=Cc1ccc(Br)cc1)c1cccc2cnccc12 [H-89, N-[2-((p-bromocinnamyl)amino)ethyl]-5-isoquinoline sulfonamide, HCl] | much less efficient at inhibiting kinase activity
2 | 8,421 CPM | 12,688 CPM | 4,745 CPM | Pkc 7: GFP mutant K8 with PKC ζ motif Arg Arg Phe Lys Arg GIn Gly Ser Phe Phe (RRFKRQGSFF; not fully specified; printed as Arg Arg Phe Lys Arg GIn Gly Ser Phe Phe) | –
3 | 14,606 CPM | 20,259 CPM | 5.230 CPM | Pkc 8: GFP mutant K8 with PKC μ motif Ala Ala Leu Val Arg GIn Met Ser Val Ala (AALVRQMSVA; not fully specified; printed as Ala Ala Leu Val Arg GIn Met Ser Val Ala) | –
